Target: HLA-A*02:01 class I complex (conditional p*HLA*02:01, biotinylated heavy chain with beta2-microglobulin) (human)
Assay: UV peptide exchange, HLA class I ELISA, % of Pos peptide
Details: remark: other sources report otherwise

Binder | Average % | Exch I (%) | Exch II (%) | average relative binding (%)
LVVVGAVGV (here or on the partner: biotinylated heavy chain) [KRAS.G12V mutant peptide …] | 4.5% | 4.3% | 4.6% | < 15%
LVVVGACGV (here or on the partner: biotinylated heavy chain) [KRAS.G12C mutant peptide …] | 7% | 6.5% | 7.5% | < 15%

Reference: US20220194999A1
